Columns and labels:
[1] = molecular target: T1, 53BP1 recruitment to DSB sites in U2OS cells (Homo sapiens, UniProt Q12888); assay: Ionizing radiation focus formation, 53BP1 (immunofluorescence); assay type: cell-based; settings: transfected U2OS cells, 10 Gy X-rays, 1 h post-irradiation
T1 construct: endogenous in cells; host or cells: U2OS
Protocol: (§1) FIG. 3. The i53 protein inhibits 53BP1. FIG. 3A-B, U2OS cells were transfected with vectors expressing i53, its 53BP1-binding deficient mutant (DM) or an empty vector (EV) control. Cells were then X-irradiated with a 10 Gy dose and processed for immunofluorescence with the indicated antibodies 1 h post-irradiation (IR). DAPI staining (not shown) was used to delineate the outline (dashed lines) of the cell nuclei. The region in the magnified inset is indicated with a square. Quantitation of the experiment is shown in panel (a) and data is indicated as the mean±s.e.m (N=3), whereas in (b) representative micrographs are shown. Arrowheads indicate Flag-positive cells. FIG. 3C, Parental or 53BP1ΔU2OS cells transfected with vectors expressing i53, the DM mutant or an empty vector (EV) control were irradiated (10 Gy) 1 h before being processed for immunofluorescence. Cell cycle stage was assessed by Cyclin A staining. The data is presented as the mean±s.e.m.; N=3. FIG. 3D, Immunoprecipitation (IP) of Flag-tagged proteins from extracts prepared from 293T cells transfected with vectors expressing Flag-i53 or the i53-DM mutant. Proteins were separated by SDS-PAGE and immunoblotted (IB) for Flag and 53BP1. […]

[2] = system: BRCA1 focus formation in U2OS cells; assay: Ionizing radiation focus formation, BRCA1 (immunofluorescence); assay type: cell-based; settings: 10 Gy
Protocol: as §1

KDM5B = molecular target: T2, KDM5B (Homo sapiens, UniProt Q9UGL1); assay: Flag IP-MS of i53/i53-DM baits: prey KDM5B; assay type: binding; settings: 293T Flp-In/T-Rex extracts, LC-MS/MS, one column per replicate IP
T2 construct: endogenous in cells; host or cells: HEK293 Flp-In/T-REx
T2 sequence (Q9UGL1 whole entry): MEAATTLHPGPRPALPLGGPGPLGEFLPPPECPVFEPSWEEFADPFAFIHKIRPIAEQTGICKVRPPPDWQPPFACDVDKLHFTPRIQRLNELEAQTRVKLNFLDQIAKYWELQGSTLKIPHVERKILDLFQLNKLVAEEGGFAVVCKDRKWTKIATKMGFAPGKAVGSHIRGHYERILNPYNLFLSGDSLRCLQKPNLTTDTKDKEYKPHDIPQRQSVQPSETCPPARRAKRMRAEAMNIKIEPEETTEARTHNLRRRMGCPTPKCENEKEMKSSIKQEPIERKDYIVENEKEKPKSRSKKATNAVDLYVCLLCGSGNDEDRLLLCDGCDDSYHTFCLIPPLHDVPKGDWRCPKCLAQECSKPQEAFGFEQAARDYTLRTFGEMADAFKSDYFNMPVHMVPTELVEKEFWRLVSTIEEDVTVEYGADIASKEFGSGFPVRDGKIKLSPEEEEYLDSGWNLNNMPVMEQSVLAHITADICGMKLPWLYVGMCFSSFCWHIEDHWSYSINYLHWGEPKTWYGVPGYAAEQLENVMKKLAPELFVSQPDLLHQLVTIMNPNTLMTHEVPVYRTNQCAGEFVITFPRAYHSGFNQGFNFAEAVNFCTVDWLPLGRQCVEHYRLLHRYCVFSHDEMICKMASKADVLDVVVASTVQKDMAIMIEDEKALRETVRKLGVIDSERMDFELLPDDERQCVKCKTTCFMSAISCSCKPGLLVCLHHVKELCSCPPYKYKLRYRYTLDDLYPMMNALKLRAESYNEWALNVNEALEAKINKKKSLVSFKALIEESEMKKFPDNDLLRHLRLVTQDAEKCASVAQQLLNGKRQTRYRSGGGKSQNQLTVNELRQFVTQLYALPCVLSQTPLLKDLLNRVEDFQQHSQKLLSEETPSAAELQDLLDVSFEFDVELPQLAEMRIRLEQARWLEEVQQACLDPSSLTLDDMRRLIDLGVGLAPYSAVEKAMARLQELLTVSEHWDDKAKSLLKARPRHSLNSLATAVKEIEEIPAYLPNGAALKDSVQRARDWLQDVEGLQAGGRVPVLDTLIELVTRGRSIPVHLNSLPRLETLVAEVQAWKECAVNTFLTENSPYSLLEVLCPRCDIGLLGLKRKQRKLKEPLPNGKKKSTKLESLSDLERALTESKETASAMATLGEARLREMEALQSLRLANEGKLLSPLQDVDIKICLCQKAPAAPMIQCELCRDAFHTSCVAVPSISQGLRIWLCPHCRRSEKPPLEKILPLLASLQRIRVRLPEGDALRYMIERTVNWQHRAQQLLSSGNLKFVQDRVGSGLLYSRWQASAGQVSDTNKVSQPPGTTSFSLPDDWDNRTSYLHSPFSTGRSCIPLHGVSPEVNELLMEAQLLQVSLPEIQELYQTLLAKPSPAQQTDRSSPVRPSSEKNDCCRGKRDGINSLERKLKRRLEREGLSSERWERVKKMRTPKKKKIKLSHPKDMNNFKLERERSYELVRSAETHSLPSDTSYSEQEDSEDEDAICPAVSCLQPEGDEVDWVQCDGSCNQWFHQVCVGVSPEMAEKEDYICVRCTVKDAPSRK
Protocol: (§2) Following immunoprecipitation of Flag-tagged i53 and i-53-DM from HEK293 Flp-In/T-REx cells, peptides were identified using LC-MS/MS. Proteins were digested in solution with trypsin (Sigma, T7575-1KT) and dried to completeness. For LC-MS/MS analysis, peptides were reconstituted in 5% formic acid and loaded onto a 12-15 cm fused silica column with pulled tip packed in-house with 3.5 μm Zorbax C18 (Agilent Technologies, Calif., USA).
(§3) i53 and i53-DM precipitates were analyzed using an LTQ (Thermo Scientific) coupled to an Agilent 1100 Series HPLC (Agilent Technologies). Peptides were eluted from the column using a 90 min period cycle with a linear gradient from 0% to 40% ACN in 0.1% formic acid. Tandem MS spectra were acquired in a data-dependent mode for the top 5 (LTQ) most abundant ions using collision-induced dissociation. Acquired spectra were searched against the human Refseq_V53 database using Mascot (Matrix Science).
(§4) 293T Flp-In/T-Rex cell lines were generated that expressed Flag-tagged i53 or i53-DM under the control of a tetracycline-inducible promoter as previously described. Nine IP-MS experiments were analyzed (3 biological replicate IPs each for control i53- and i53-DM expressing cell lines). The interacting proteins were identified by MASCOT to identify high-confidence interactors for i53. […]

RPL8 = molecular target: T3, RPL8 (Homo sapiens, UniProt P62917); assay: Flag IP-MS of i53/i53-DM baits: prey RPL8; assay type: binding; settings: 293T Flp-In/T-Rex extracts, LC-MS/MS, one column per replicate IP
T3 construct: Following immunoprecipitation of Flag-tagged i53 and i-53-DM from HEK293 Flp-In/T-REx cells, peptides were identified using LC-MS/MS; endogenous in cells; host or cells: HEK293 Flp-In/T-REx cells
Protocol: as §2, §3, §4

RPS29 = molecular target: T4, RPS29 (Homo sapiens, UniProt P62273); assay: Flag IP-MS of i53/i53-DM baits: prey RPS29; assay type: binding; settings: 293T Flp-In/T-Rex extracts, LC-MS/MS, one column per replicate IP
T4 construct: Following immunoprecipitation of Flag-tagged i53 and i-53-DM from HEK293 Flp-In/T-REx cells, peptides were identified using LC-MS/MS; endogenous in cells; host or cells: HEK293 Flp-In/T-REx cells
Protocol: as §2, §3, §4

RERGL = molecular target: T5, RERGL (Homo sapiens, UniProt Q9H628); assay: Flag IP-MS of i53/i53-DM baits: prey RERGL; assay type: binding; settings: 293T Flp-In/T-Rex extracts, LC-MS/MS, one column per replicate IP
T5 construct: endogenous in cells; host or cells: HEK293 Flp-In/T-REx cells
T5 sequence (Q9H628 1-204): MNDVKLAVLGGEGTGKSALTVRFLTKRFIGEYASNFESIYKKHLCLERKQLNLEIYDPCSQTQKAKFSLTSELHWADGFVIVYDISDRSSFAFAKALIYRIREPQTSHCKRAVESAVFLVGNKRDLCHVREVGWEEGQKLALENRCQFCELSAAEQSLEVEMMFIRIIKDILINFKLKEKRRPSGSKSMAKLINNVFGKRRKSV
Protocol: as §2, §3, §4

T1 sequence (Q12888 whole entry): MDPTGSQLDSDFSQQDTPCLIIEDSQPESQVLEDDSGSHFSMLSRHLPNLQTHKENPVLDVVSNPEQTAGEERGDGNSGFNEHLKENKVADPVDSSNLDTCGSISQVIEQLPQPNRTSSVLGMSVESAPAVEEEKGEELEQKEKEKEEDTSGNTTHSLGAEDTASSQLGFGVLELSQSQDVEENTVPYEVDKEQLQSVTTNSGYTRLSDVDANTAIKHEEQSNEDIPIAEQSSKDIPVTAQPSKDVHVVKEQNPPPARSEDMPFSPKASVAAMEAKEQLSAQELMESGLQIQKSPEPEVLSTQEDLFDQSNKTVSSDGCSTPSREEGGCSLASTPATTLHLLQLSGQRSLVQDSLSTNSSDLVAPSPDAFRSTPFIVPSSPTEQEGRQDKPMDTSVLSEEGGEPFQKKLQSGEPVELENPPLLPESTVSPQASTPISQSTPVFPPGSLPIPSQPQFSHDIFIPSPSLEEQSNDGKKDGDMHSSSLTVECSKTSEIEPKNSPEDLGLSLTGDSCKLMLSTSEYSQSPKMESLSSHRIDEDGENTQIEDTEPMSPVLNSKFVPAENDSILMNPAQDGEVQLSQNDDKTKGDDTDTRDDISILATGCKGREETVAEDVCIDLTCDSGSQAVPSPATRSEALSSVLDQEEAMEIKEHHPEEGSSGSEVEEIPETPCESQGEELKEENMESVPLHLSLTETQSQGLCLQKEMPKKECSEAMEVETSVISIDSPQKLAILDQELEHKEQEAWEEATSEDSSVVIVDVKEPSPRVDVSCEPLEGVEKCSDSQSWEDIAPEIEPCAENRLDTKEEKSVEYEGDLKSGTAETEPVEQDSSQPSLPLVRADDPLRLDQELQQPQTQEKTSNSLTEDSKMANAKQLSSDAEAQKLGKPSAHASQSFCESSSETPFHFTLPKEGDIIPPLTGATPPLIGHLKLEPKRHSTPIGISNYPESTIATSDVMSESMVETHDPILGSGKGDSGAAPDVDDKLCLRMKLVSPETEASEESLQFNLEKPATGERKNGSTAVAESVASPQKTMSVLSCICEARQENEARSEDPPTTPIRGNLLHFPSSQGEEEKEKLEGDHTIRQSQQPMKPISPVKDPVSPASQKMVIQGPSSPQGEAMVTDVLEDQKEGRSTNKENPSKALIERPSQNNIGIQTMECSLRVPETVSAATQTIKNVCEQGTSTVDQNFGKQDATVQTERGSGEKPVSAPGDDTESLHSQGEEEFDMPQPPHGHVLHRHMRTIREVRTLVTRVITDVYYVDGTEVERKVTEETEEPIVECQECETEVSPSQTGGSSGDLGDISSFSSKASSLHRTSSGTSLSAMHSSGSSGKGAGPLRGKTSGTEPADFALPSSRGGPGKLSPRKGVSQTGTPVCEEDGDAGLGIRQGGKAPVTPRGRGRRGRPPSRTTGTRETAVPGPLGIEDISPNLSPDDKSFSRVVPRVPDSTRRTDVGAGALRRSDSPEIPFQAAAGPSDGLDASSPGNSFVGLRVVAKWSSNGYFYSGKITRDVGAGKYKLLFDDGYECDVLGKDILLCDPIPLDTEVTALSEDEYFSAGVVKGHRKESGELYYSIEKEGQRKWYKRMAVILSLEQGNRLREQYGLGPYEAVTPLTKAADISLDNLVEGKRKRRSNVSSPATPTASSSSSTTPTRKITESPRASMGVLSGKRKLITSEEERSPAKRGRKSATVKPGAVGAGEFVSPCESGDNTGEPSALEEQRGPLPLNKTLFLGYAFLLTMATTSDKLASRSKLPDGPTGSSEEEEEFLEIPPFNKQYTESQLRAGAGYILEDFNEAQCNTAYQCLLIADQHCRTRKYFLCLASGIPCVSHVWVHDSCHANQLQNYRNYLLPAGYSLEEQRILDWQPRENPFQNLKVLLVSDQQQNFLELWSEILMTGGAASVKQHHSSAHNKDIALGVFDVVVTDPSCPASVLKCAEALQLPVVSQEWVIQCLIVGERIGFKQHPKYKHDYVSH

Substance	53BP1 recruitment to DSB sites (ionizing radiation focus formation) [1]	BRCA1 accumulation at DSB sites in G1 cells ([2]; U2OS cells, cell cycle stage by Cyclin A staining)	BRCA1 focus formation ([2]; transfected U2OS cells, 1 h post-irradiation)	Total peptides, KDM5B (KDM5B)	Total peptides, RPL8 (RPL8)	Total peptides, RPS29 (RPS29)	Total peptides, RERGL (RERGL)
i53: UbvG08 with C-terminal di-glycine removed and I44A mutation; genetically encoded inhibitor of 53BP1	strongly suppressed 53BP1 recruitment to DSB sites	induced BRCA1 accumulation at DSB sites in G1 cells	did not impact				
i53-DM: 53BP1-binding deficient mutant of i53 (P69L, L70V)				3	5	3	2

Reference: US10808017B2, “Ubiquitin variants and uses therof as 53BP1 inhibitors” (The Governing Council of the University of Toronto, priority 2016, dated 2020)
